{
  "source": "the DeepSol protein solubility set",
  "data": [
    {"assay": "soluble on expression in E. coli; label from the status in PepcDB or PDB records", "values": [
      {"sequence": "MGSDKIHHHHHHENLYFQGAVDLDREGRDPAYVESIVKRSQKIVDKLELTDTVAAREVTTIIANRYFKLNDIYETRDAKVKLAKETLTGDAKQEAVKAAEAEKDAALYRTHFAFPADLSLYLDAKQIDAVKDGMTYGVVMVTYKATVDMIPTLKEEEKAQIMAWLVEAREFAMDAENSNKKHAAFGKYKGRINNYLSKRGYDLVKERKAWYERIKARGGKI", "soluble on expression in E. coli": "soluble"},
      {"sequence": "MHHHHHHENLYFQSNAMGSTRPIDGLTDEDIREILTRYKKIALVGASPKPERDANIVMKYLLEHGYDVYPVNPNYEEVLGRKCYPSVLDIPDKIEVVDLFVDPAKAWRFVVYAIKKGAKVVWFQYNTYYPLAARQAKEAGLIIVANRCMMREHERLLGEK", "soluble on expression in E. coli": "soluble"},
      {"sequence": "MGSDKIHHHHHHMTLAEKILSQKAGRKVEPGEFLLLEPDIALANDITAPLAIKKFKEYGGKKVKYPDRVVLVPDHFTPNKDIKSAMQVKMMREFAREQGIEKFFEIGRMGIEHVLLPEEGIVKSGDLVVGADSHTCTYGALGAFATGVGSTDIAGFYLIGKVWFRVPESIKVTLRGKFKDLVTAKDLVLKLISILGVDGANYKAIEFSGPGVKEISMDGRFTISNMAIEAGGKTGLFPVDEITIAYERERGIEVEEMYPDEDAKYVREVEMDLSELEPQVAYPFLPSNAKDVSEAEKERIKIDQAVIGSCTNGRIEDLRLAAQILKGRTVSPDVRCIIIPGSQKVYKQALKEGLIDIFIDAGCAVSTPTCGPCLGGHMGVLAEGEVAISTTNRNFVGRMGHPNSKVFLASPAVAAASAIKGYIADPRKL", "soluble on expression in E. coli": "not soluble"},
      {"sequence": "MGRGVYTLALRGLAPLIWLWMWRRARRAGGQWELFAPARFGRAGARAPAPLAAPVWVHAVSLGETRAAQPLVQALLERGLPVLLTHTTATGRAEGERLFGAAIGRGQLQQAWLPYDFPGATRRFLARHAPRCGLLIEREVWPNLLAAARAQGVPMALVSARFSASSLRQAGWLGQALREALAGLGRVLAQTDEDGARLCQAGANAYTVTGSLKFDVALPEAQLRVGHAWAGATGRPVIALASTREGEDAMFIEAIGALQAHRAATPRPLILLIPRHPQRFDEAAAQLQAAGLAYARRSAGSGEPGPHIDVLLGDTLGEMPFYYAAADVAIVGGSFARLGGQNLIEACAAGTPVIVGPHTFNFKDAARDAIAAGAALRAPDARTALDWALQLLAEPARRQAMSEAARAWTAAHAGATRRTLDALEDWLAPRLEHHHHHH", "soluble on expression in E. coli": "soluble"},
      {"sequence": "MSLNVDVLLKNVWLYQTVTQTFVQRNVAIKNDKFYYIYEEENVNLQPQKTINAENQWMIPGLIDAHMHIESSMTTPTIFSKAVVRYGVTTVIADAHEMANVFGLEGLKAFMAAETELDIFHAIPSSVPSTTPELETTGGIIGLAEVAELLKEPKVICLGEAMNFKGISYEPDSLIRQIIDLCQKQRPTMPLEGHCPKIEDQELADFLYSGITSDHTHQFPKTLKEKIEAGVFIQFQNKSITPENIQVIVDNDFYNYASIITDDVMADDLLKGHLNENVKKAVHAGLPIEKAIYMATYTPAKRMGLHDRGEIAPGKKADFLLLNDLESFDINTVYKSGKVVFEKGEPFHYPEKIEEFPATYQQTIQCKKLTEEDLLLKVATTKETVRCNVIQKQEIGTFTERITKEIPVENGLLQWQKANCALLIVMERYGKNGNISFSLMDQPLSEKGAIATTWAHDHHNLMVMGNTIEDILLAQNELLAMQGGYLVASDQQVMATCPLPIGGILSQAPIEQLGASLQKVRQAMQALGYQNMNEIMSFSTLSLPVSPAIKVTDFGMMDTKSQRFYPLVFPEDGVLLHENTHEGHHHHHH", "soluble on expression in E. coli": "soluble"},
      {"sequence": "MAHHHHHHMQQENRHLSSADLFKKFTLQNVAQIANISNKEQSQIRGELTEQYPLLADFWEDIMPKKADIMLVRCHDQVHCVTLVSSQPEVLFFRHHNSPYIPHLKLLHKYPFILPRQQVDIGGCKYVVSGANVMCPGLTSEGGYITPGLAAGAIVAIHVEQKEHAIAVGRMLMSSEEIERVNNGPGIENIHHLGDGLWMNRVLSSSHIGAR", "soluble on expression in E. coli": "soluble"},
      {"sequence": "SLIKKVKIKKFNGRDFYDMEDYVAVEESYNIFINGEFVKSLSMSPNFLNEFAVGFAISEGFLNKIDKVEVDKNNINIFGEKNDREIKNNKNNKEIKIDIEIIKKIISYEIKAKYWEITGSFHWASMFDLKGNSIIFVEDIGRHNAVDKVIGYAILNNYNLNKLILRYSGRIPSDIVKKAINSGLNIIISKSPPTDKAIELAEENNILLIGFARNGKFNIYTSGRLWEE", "soluble on expression in E. coli": "soluble"},
      {"sequence": "MNNPKPCEWKSNELSRGYIADYKAFNFVDGEGVRCSLYVSGCPFHCEGCYNKAAQSFKYGKPYTKELEDDILKDIGHESVQGLTLLGGEPFLNTATCLSVVKRIRATYGKTKDIWSWTGYTWDEMMQETTDKLELLSLIDVLVDGRFEQKLFDPNLAFRGSSNQRIIDVQKSLAADEVVLYELLEHHHHHH", "soluble on expression in E. coli": "soluble"},
      {"sequence": "MGSDKIHHHHHHMADNLALRMRPRNINEVIGQQHLVGNGKIIDRMVAANMLSSMILYGPPGIGKTSIASAIAGTTKYAFRTFNATVDSKKRLQEIAEEAKFSGGLVLLLDEIHRLDKTKQDFLLPLLENGNIIMIGATTENPFFSVTPAIRSRVQIFELEPLSNEDIKKAIQLAISDKERGFPFLVTIDDEALDFIVTATNGDLRSAYNSLDLAVMSTSPNEDGSRHISLETMENSLQCSYITMDKNGDGHYDILSALQKSIRGSDVNASLHYAARLVEAGDLPSLARRLTIIAYEDIGLANPEAQIHTVTALEAAQRIGFPEARILIANIVVDLALSPKSNSAYLAMDAALADLRRSGNLPIPRHLRDGHYSGSKTLGNARDYKYPHAYPEKWVKQQYLPDKLVGHNYFEANETGKYERALGSNKERIDKLSD", "soluble on expression in E. coli": "not soluble"},
      {"sequence": "MGSDKIHHHHHHMKQILNTLYVMTQGAYVCLDHETVKVEVKGALQMQVPLHHLGAIVTMGNVMMSPFIMARCAEDGRALVILDRNGKFKCRVVGKTSGNVLLRQTQYEAVRDRERSAAIARNMVAGKVKNARQILMRGARETTDADESAVLRKAGDTLADALFHLKDATDIDHVRGLEGEAANAYFQVFDRMVKEEERPAFRMNGRNRRPPLDPMNALLSFLYTLLLNDCISAVEGVGLDSQMGFLHVLRPGRPSLGLDIMEEFRAVLADRLALTLINRKQITEKHFEVRPGGATYLDDAGRKEVIMAYQKRKQDEFHHPVLDQKVPFGLLPHVQARLLARHLRGDLEQYTPVLYS", "soluble on expression in E. coli": "not soluble"},
      {"sequence": "QVQLVESGGGSVQAGGSLRLSCTASGYTIGPYCMGWFRQAPGGEREAVAAINMGGGITYYADSVKGRFTISRDNAKNTVTLQMNSLKPEDTAMYYCAADSTIYASYYECGHGLSTGGYGYDSWGQGTQVTVSSRGRHHHHHH", "soluble on expression in E. coli": "soluble"},
      {"sequence": "MGSDKIHHHHHHLKICLSCSARFTDSGWRCPVCFSTPEQVDGFLSFAPAQAKSDEGFQPHHFNELAQAEAEHFWFRSRNRLIIWALHRFFPDARKFLEIGCGTGFVLSGIAQDNPRLEISGSEIHSAGLSHAADRARNATLFQMDARDIPFDSEFDVIGAFDVLEHIEEDSQVLLQMFRAISPGGGMIVTVPQHRFLWSQQDEHACHVRRYEAQELQDKVEKAGFRVEKATSFVSLLLPLMFISRLSKRKPVENYDPTQEFRIKKWVNTILEGILDLERLMIRGRVSFPMGGSRLLIARKPAGA", "soluble on expression in E. coli": "not soluble"},
      {"sequence": "SLGQADTERLLSDRKLVLLVDLDQTLIHTTNDNVPNNLKDVYHFQLYGPNSPWYHTRLRPGALEFLAKMHPYYELHICTFGARNYAHMIAQFLDKDGNFFSHRILSRDECFNATSKTDNLKALFPCGDSMVCIIDDREDVWNMASNLIQVKPYHFFRHTGDINAPPGMSKNELDGKGVDFKELMSQSQK", "soluble on expression in E. coli": "soluble"},
      {"sequence": "MPFRSNNPITRDELLSRFFPQFHPVTTFNSGLSGGSFLIEHQGQRFVVRQPHDPDAPQSAFLRQYRALSQLPASIAPKPHLYLRDWMVVDYLPGAVKTYLPDTNELAGLLYYLHQQPRFGWRITLLPLLELYWQQSDPARRTVGWLRMLKRLRKAREPRPLRLSPLHMDVHAGNLVHSASGLKLIDWEYAGDGDIALELAAVWVENTEQHRQLVNDYATRAKIYPAQLWRQVRRWFPWLLMLKGGWFEYRWRQTGDQQFIRLADDTWRQLLIKQ", "soluble on expression in E. coli": "not soluble"},
      {"sequence": "MKCTECSHEAGVSSFRYLYNARIDAPITLRQCPQCQAWLAVDEMAGEARQRVDAGEAPWGKSAGIEGLAEDAR", "soluble on expression in E. coli": "not soluble"},
      {"sequence": "FHQISSRIQKSIDVDEVLRLCAEGLHDVLGYERVNILMADTARTSLSFVAAVGTADFNPAGVVLPLDQRGGVITKCFTDRQVYMIDDVSAYPTDFRLQSPYDAIRALRSKSFVICPIVVKGEAIGVFAVDNRSSRRSLNDTDVDTIKLFADQASSAIVRINLLKAI", "soluble on expression in E. coli": "soluble"},
      {"sequence": "MSIRDWPEAERPREKLLEQGAAALSDAELLAIFLRTGVTGCSAVELSRRLLSEFGGLRALLEADLASFCGHLGLGVAKYAQLQAVLEMGRRHLAERLRRDSILESPQAVRDYLKARLRHEQHEVFACLFLDTRHRVLSFEVLFQGSIDGASVYPRQVVKRTLAHNAAALILTHNHPSGDARPSLADRQLTARLKEALALIDVRVLDHFIIGDGEPLSLAEYGWL", "soluble on expression in E. coli": "not soluble"},
      {"sequence": "MGSDKIHHHHHHMVLPGFFVPVKGWCPLPGVVIFTDVPAVVPATVSAHEAACPAGSPVLPRVSGLPPLRDGSRGRDCPMGASHVWDLPFSPPAGAALPCRRSRSHGLAPAPRVYGMLLVRAWRCSMDRDTVAGLMADALLERRFRHNDGAHPALAALRELAVNQGTDAGRRMVADDPHEVGSPPLSPIDPVELLQHDGALPSLPTVYVELRQRLADPDCSVREAAEVITRDAGLTAWLLRVVNSASYGLSGRVDTVTQAVAVVGMRQLETMVASGMLQSLMRSVPRGLVDMERLWRHSLAVGGAAREIWRLMGRPDPERLFVAGVLHDVGYLAFVMMAPQKAAQLVPRLRASHLPGHLAERELLGFDHAKLGGMLLHKWNMPVPLVMSVLRHHEPESVPSMPEPSVIHLADIVARAMGYGPDAESAVPPLSASAWEASGLTPQHLEAVANAMTAMVDDLGTAVMCTTV", "soluble on expression in E. coli": "not soluble"},
      {"sequence": "MAIPYVVRKKADLTSGERKELWYGVPSKIQDRGGVQNKELAQVVELRGGFHRGQVEGILVEVADAIRYLLSMGQSVTIDGLGTFQTALTSPGFERPEQVTPGQVSVSRVYFVANSALRDRMKKTKCMRIPFKYYMSESMLTKEMKKADQEQEQTEE", "soluble on expression in E. coli": "not soluble"},
      {"sequence": "MGHHHHHHSHMLKKMGEAVARVARKVNETVESGSDTLDLAECKLVSFPIGIYKVLRNVSGQIHLITLANNELKSLTSKFMTTFSQLRDVPVEKLAAMPALRSINLRFNPLNAEVRVIAPPLIKFDMLMSPEGARAPLP", "soluble on expression in E. coli": "not soluble"},
      {"sequence": "LITFRCRSYANVTMFGDIALEMIKMMGHSGTVPGSISAQDVPDALSKLTSALSAKNAAEENLPTDVDVDEKEEQVEPAVSLGRRAFPLIELLKSAIKEECEVMWD", "soluble on expression in E. coli": "not soluble"},
      {"sequence": "MHRRRSGPTSQPLARGERGLPANRSFASLIAWLTSVRLLCRSPPFCCFYSLSTYTTVMYTDGQYDYDVAVVGGGPAGLTSALYTSRLGMDTIVINRGGGRAAMMTDTHNVIGVTEDVSGNEFLETAREQVQDYGGTYERGFVESVDPLADEEDGFTVTTSDGELAVKRVVLATGFADERPDPPLPRTGKGLHWCLHCDAFMFVGEPVFVMGTGEAAAHVAMIMLNYTDDVDILTRGETPEWSDETQTMLDNHPVEIVETELSGKQTDDDGWLSAYEFEDGSVREYKGGFPMLGSDYHAELADELGLDRNDDGTVAVDDHGETSVSGVYAVGDLTPGHNQIPIAMGEGADAGIAIHKDLRKYPRSVDDIESEGAVEDVEVPAVSEELFATALTHEGHAAGPRSEEAPEVRADDDLEHHHHHH", "soluble on expression in E. coli": "not soluble"}
    ]}
  ]
}
